These results are taken from patent US20240117334.

Residue numbers refer to the chain shown, from its start. Names and notes keep the numbering of the source.

This series deals with Human Factor B.
Human Factor B, sequence (chain, as listed by the source): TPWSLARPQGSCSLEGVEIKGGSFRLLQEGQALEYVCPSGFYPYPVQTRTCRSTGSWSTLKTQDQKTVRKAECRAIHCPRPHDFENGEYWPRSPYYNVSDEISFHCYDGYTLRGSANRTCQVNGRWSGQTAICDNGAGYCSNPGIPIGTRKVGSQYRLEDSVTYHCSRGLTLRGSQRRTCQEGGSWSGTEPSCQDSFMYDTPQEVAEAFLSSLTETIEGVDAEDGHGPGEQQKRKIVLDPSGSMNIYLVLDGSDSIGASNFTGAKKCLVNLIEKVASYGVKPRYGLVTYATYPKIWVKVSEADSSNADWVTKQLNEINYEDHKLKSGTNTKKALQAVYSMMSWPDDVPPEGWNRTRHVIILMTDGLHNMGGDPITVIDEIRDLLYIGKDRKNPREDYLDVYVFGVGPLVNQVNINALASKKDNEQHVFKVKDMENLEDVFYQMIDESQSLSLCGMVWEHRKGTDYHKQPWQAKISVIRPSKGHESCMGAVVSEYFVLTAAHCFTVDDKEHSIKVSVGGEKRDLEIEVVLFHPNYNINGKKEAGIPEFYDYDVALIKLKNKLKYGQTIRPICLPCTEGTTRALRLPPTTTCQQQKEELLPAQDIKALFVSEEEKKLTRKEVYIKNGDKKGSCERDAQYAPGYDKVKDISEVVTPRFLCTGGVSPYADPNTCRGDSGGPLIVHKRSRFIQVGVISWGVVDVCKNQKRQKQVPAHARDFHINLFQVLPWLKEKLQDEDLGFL

B1: MTSP-1 F97E/K224N/F99L/D217I/C122S/C[17]S/C[19]S (protein)
chain: VVGGTDADEGEWPWQVSLHALGQGHICGASLISPNWLVSAAHCYIDDRGFRYSDPTQWTAFLGLHDQSQRSAPGVQERRLKRIISHPFFNDETLDYDIALLELEKPAEYSSMVRPISLPDASHVFPAGKAIWVTGWGHTQYGGTGALILQKGEIRVINQTTCENLLPQQITPRMMCVGFLSGGVDSCQGDSGGPLSSVEADGRIFQAGVVSWGIGCAQRNNPGVYTRLPLFRDWIKENTGV
As for B1, the “Factor B add-back hemolysis” value is given as “is able to inhibit hemolysis”.

B2: chymase C22S/K40L/F41K/L99N/F173Y/D175N/S218L/A226R (protein)
chain: IIGGTESKPHSRPYMAYLEIVTSNGPSLKCGGFLIRRNFVLTAAHCAGRSITVTLGAHNITEEEDTWQKLEVIKQFRHPKYNTSTNHHDIMLLKLKEKASLTLAVGTLPFPSQFNFVPPGRMCRVAGWGRTGVLKPGSDTLQEVKLRLMDPQACSHYRNFDHNLQLCVGNPRKTKSAFKGDSGGPLLCAGVAQGIVSYGRLDAKPPRVFTRISHYRPWINQILQAN
Consider B2, for which the “Factor B cleavage, Coomassie gel” value is recorded as “each lot showed the ability of the engineered proteases to cleave Factor B”.

B3: chymase C22S/P38Q/K40M/F41R/V138I/F173Y/D175R/A190S/V213A/S218V/A226R (protein)
chain: B2 chain with P26Q, L28M, K29R, N86L, V125I, N159R, A177S, V196A, L201V
As to B3, the “Factor B cleavage” value is given as “show high Factor B cleavage activity”.

B4: chymase C22S/P38Q/K40M/F41R/L99M/F173Y/D175N/V213Q/S218V/A226R/F228A (protein)
chain: B2 chain with P26Q, L28M, K29R, N86M, V196Q, L201V, F209A
In the case of B4, the “Factor B cleavage, Coomassie gel” value is listed as “each lot showed the ability of the engineered proteases to cleave Factor B”.

B5: chymase C22S/P38Q/K40L/F41R/L99H/V138I/F173Y/D175S/A190S/V213A/S218I/A226R (protein)
chain: B2 chain with P26Q, K29R, N86H, V125I, N159S, A177S, V196A, L201I
As to B5, the “Factor B cleavage, Coomassie gel” value is “each lot showed the ability of the engineered proteases to cleave Factor B”.

B6: chymase C22S/P38Q/K40M/F41R/D175N/V213Q/S218V/A226R/F228A (protein)
chain: B2 chain with P26Q, L28M, K29R, N86L, Y157F, V196Q, L201V, F209A
Turning to B6, the “Factor B cleavage, Coomassie gel” value is reported as “each lot showed the ability of the engineered proteases to cleave Factor B”.

B7: chymase C22S/P38Q/K40L/F41R/V138I/F173Y/D175N/A190S/V213A/S218V/A226R (protein)
chain: B2 chain with P26Q, K29R, N86L, V125I, A177S, V196A, L201V
As to B7, the “Factor B cleavage” value is reported as “show high Factor B cleavage activity”.
